US20220401480A1 (NOILE IMMUNE BIOTECH, published 2022)

Biological target: T1, recombinant fusion protein including mouse PD-1 and immunoglobulin Fc portion (mouse, UniProt Q02242 25-167, limits assumed)
T1 construct: also called mouse PD-1-Fc; not shown: immunoglobulin Fc portion
T1 sequence (looked up): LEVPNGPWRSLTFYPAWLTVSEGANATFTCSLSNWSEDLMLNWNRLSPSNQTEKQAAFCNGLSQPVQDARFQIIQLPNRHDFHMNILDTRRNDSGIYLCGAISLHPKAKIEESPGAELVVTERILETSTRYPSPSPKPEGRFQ
Experiment: ELISA: mouse PD-1-Fc immobilized in wells; scFv from conditioned medium of conv./PD-1 and 7x19/PD-1 CAR-T cells captured; detected with anti-FLAG tag or anti-6xHis tag; signal observed for both (FIG. 15)
Method: Prior to using various CAR-T cells in experiments, the concentration of anti-mPD-1 scFv (also referred to PD-1scFv) was measured using two kinds of ELISA kit. Specifically, a conditioned medium of the untransduced T cells, the anti-hCD20-CAR-expressing T cells, the anti-hCD20 CAR-IL-7/CCL19-expressing T cells, the anti-hCD20-CAR-anti-PD-1-antibody-expressing T cells, or the anti-hCD20-CAR-IL-7/CCL19-anti-PD-1-antibody-expressing T cells was collected after 2 days of cultivation, and the concentrations of […] in the conditioned medium were measured using ELISA. In the ELISA, a recombinant fusion protein including mouse PD-1 and immunoglobulin Fc portion was immobilized in the wells, PD-1 scFv was captured thereto, and an anti-FLAG tag or anti-6xHis tag was used for detection. In FIG. 15, the average value over the triplicate wells as well as the standard deviation thereof are indicated in the graph. In each graph, data are arranged from the left to the right: the untransduced T cells (uninf.), the anti-hCD20-CAR-expressing T cells (conv.), the anti-hCD20 CAR-IL-7/CCL19-expressing T cells (7×19), the anti-hCD20-CAR-anti-PD-1-antibody-expressing T cells (conv./PD-1), the anti-hCD20-CAR-IL-7/CCL19-anti-PD-1-antibody-expressing T cells (7×19/PD-1), and a culture medium only (data obtained by performing the same treatment on the culture liquid to which T cells were not added).

B1: anti-mPD-1 scFv (anti-mouse-PD-1 scFv with FLAG tag and His tag, secreted by transduced mouse T cells) (scFv)
scFv: QFVLTQPKTVSESLGRTVTISCKRSSGSVGDYYVSWHQQRFGSSPKTVIYLDDERPSGVPKRFSGSIDSSSNSASLTITDLQTDDEADYFCLSYDSNNHFVFGSGTHLTVLGGGGSGGGGSGGGGSEVQLVESGGGLAQPGKSLKLSCEASGFTFSDYGMNWFRQAPGKGLEWVAYISSGSNKITYADTVKGRFTVSRDNGKNQLFLQMNNLKSEDTAIYYCVDSGFNSYSDVWGQGIQVTVSSDYKDDDDKFVEHHHHHH
notes: It was tested as conditioned medium and was not purified; also called anti-PD-1 scFv
  binding result: binds
